Source: publication PMC9173640, “PI Kinase-EhGEF2-EhRho5 axis contributes to LPA stimulated macropinocytosis in Entamoeba histolytica” (PLoS Pathogens, 2022)

Molecular target: T1, GST-RBD (Rho binding domain of mRhotekin) ( (printed as mRhotekin), UniProt Q8C6B2 17-98)
T1 construct: also called RBD-GST; source: E. coli BL21(DE3), purified (GST-sepharose beads); construct a gift from Dr. Richard Cerione
T1 sequence (looked up): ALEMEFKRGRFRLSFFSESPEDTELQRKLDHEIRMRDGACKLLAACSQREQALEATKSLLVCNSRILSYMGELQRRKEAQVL
Experiment: pull-down; GST-RBD/GST-PBD bound to sepharose beads incubated 2 hrs at 4°C with lysates (10 mM MgCl2, 5 mM EDTA) of serum starved HA-EhRho5 trophozoites, with or without 15 uM LPA for 15 mins, followed by 100 nM wortmannin or DMSO; blot with anti-HA
Conditions: one partner purified

B1: HA-EhRho5 (natural protein)
chain: not shown
notes: EhRho5 (EhRacD), Rho family GTPase of Entamoeba histolytica, Acc no; EHI_012240; PCR primers run from the ATG to the stop codon; cloned in EhEx-HA with SmaI-XhoI; Expressed under the amoebic cysteine synthase promoter; also called EhRacD; source: E. histolytica HM1:IMSS trophozoites, stably transfected (EhEx-HA), in lysate
- fold increase in binding after LPA treatment against untreated trophozoites: 7 fold
